Values quoted from earlier work in article PMC8880779 (International Journal of Molecular Sciences, 2022).

Legend:
mouse model of AD = tested on: mouse model of AD; parameters: method as in PMID 29164613
cell-based AD model = tested on: cell-based AD model; parameters: method as in PMID 23519124

B1: CaM-like skin protein: present at concentrations ranging between 3 and 6 nM in the human cerebrospinal fluid (protein, UniProt Q9NZT1 2-146, looked up)
Calmodulin-like protein 5: AGELTPEEEAQYKKAFSAVDTDGNGTINAQELGAALKATGKNLSEAQLRKLISEVDSDGDGEISFQEFLTAAKKARAGLEDLQVAFRAFDQDGDGHITVDELRRAMAGLGQPLPQEELDAMIREADVDQDGRVNYEEFARMLAQE
In the case of B1, the “protection against spatial learning impairment” value (mouse model of AD) is listed as “affords efficient protection against spatial learning impairment” and the “inhibition of neuronal death” value (cell-based AD model) is listed as “inhibits neuronal death in a cell-based AD model”.
